# Assay results: US20250320281A1
# Experiments:
# Experiment in all cases: cell-based or functional assay
# [1] = target: HIV-1 MGRM-D-001 envelope glycoprotein (Env) on pseudovirus (HIV-1)
# [2] = target: HIV-1 JRFL envelope glycoprotein (Env) on pseudovirus (HIV-1)
# [3] = target: HIV-1 MGRM-C-027 envelope glycoprotein (Env) on pseudovirus (HIV-1)
# [4] = target: HIV-1 APV6 envelope glycoprotein (Env) on pseudovirus (HIV-1)
# [5] = target: HIV-1 MGRM-D-018 envelope glycoprotein (Env) on pseudovirus (HIV-1)
# [6] = target: HIV-1 MGRM-D-018 Env (HIV-1)
# [7] = target: HIV-1 94UG103 Env (pseudovirus) (HIV-1 isolate 94UG103 (clade A))
# [8] = target: HIV-1 Env of pseudovirus 94UG103 (subtype A) (HIV-1)
# [9] = target: HIV-1 Env of isolate MG RM-D-020 (clade D), on pseudovirus (HIV-1)
# [10] = target: HIV-1 Env of pseudovirus MGRM-A-003 (subtype A) (HIV-1)
# [11] = target: HIV-1 Env of pseudovirus MGRM-A-005 (subtype A) (HIV-1)
# [12] = target: HIV-1 Env of pseudovirus 92UG031 (subtype A) (HIV-1)
# [13] = target: HIV-1 Env of pseudovirus 92WR020 (subtype A) (HIV-1)
# [14] = target: HIV-1 Env of isolate MG RM-D-005 (clade D), on pseudovirus (HIV-1)
# [15] = target: HIV-1 Env of pseudovirus 92WR021 (subtype A) (HIV-1)
# [16] = target: HIV-1 Env of isolate MG RM-D-019 (clade D), on pseudovirus (HIV-1)
# [17] = target: HIV-1 Env of isolate MGRM-Chronic-B-010 (HIV-1)
# [18] = target: HIV-1 Env of isolate MGRM-Chronic-B-012 (HIV-1)
# [19] = target: HIV-1 Env of pseudovirus 92RW008 (subtype A) (HIV-1)
# [20] = target: HIV-1 Env of isolate MGRM-F1-020 (clade F pseudovirus) (HIV-1)
# [21] = target: HIV-1 Env of isolate MG RM-D-004 (clade D), on pseudovirus (HIV-1)
# [22] = target: HIV-1 Env of isolate APV17 (HIV-1)
# [23] = target: HIV-1 Env of isolate MG RM-D-016 (clade D), on pseudovirus (HIV-1)
# [24] = target: HIV-1 Env of isolate MG RM-D-014 (clade D), on pseudovirus (HIV-1)
# [25] = target: HIV-1 Env of isolate MG RM-D-013 (clade D), on pseudovirus (HIV-1)
# [26] = target: HIV-1 Env of pseudovirus 92WR026 (subtype A) (HIV-1)
# [27] = target: HIV-1 Env of pseudovirus MGRM-A-009 (subtype A) (HIV-1)
# [28] = target: HIV-1 Env of isolate MGRM-Chronic-B-002 (HIV-1)
# [29] = target: HIV-1 Env of isolate MGRM-Chronic-B-017 (HIV-1)
# [30] = target: HIV-1 Env of isolate MGRM-F1-004 (clade F), on pseudovirus (HIV-1)
# [31] = target: HIV-1 Env of isolate MGRM-C-027 (clade C pseudovirus) (HIV-1)
# [32] = target: HIV-1 Env of isolate MGRM-Chronic-B-004 (HIV-1)
# [33] = target: HIV-1 Env of pseudovirus 93WR029 (subtype A) (HIV-1)
# [34] = target: HIV-1 Env of isolate MG RM-D-008 (clade D), on pseudovirus (HIV-1)
# [35] = target: HIV-1 Env of isolate MGRM-F1-013 (clade F), on pseudovirus (HIV-1)
# [36] = target: HIV-1 Env of isolate MG RM-D-026 (clade D), on pseudovirus (HIV-1)
# [37] = target: HIV-1 Env of isolate MGRM-Chronic-B-008 (HIV-1)
# [38] = target: HIV-1 ADA Env (HIV-1 ADA)
substance,measurement,setting,value
4858_P08 (PGT-123) (antibody),neutralization IC50,[1],0.215 µg/mL
same,neutralization IC80,[1],0.678 µg/mL
same,neutralization IC90,[1],1.31 µg/mL
same,neutralization IC95,[1],2.33 µg/mL
same,neutralization IC50,[2],0.0283 µg/mL
same,neutralization IC80,[2],0.0904 µg/mL
same,neutralization IC90,[2],0.178 µg/mL
same,neutralization IC95,[2],0.332 µg/mL
same,neutralization IC50,[3],0.0169 µg/mL
same,neutralization IC80,[3],0.149 µg/mL
same,neutralization IC90,[3],> 10 µg/mL
same,neutralization IC95,[3],> 10 µg/mL
same,neutralization IC50,[4],0.0328 µg/mL
same,neutralization IC80,[4],0.145 µg/mL
same,neutralization IC90,[4],0.339 µg/mL
same,neutralization IC95,[4],0.726 µg/mL
same,neutralization IC50,[5],0.0047 µg/mL
same,neutralization IC80,[5],0.0175 µg/mL
same,neutralization IC90,[5],0.0381 µg/mL
same,neutralization IC95,[5],0.0791 µg/mL
4877_D15 (PGT-122) (antibody),"Neutralization by PGT-122, IC50",[6],0.0115 µg/mL
same,"Neutralization by PGT-122, IC80",[6],0.035 µg/mL
same,"Neutralization by PGT-122, IC90",[6],0.0674 µg/mL
same,"Neutralization by PGT-122, IC95",[6],0.125 µg/mL
5123_A06 (PGT-125) (antibody),"Neutralization by PGT-125, IC50",[7],0.0124 µg/mL
same,"Neutralization by PGT-125, IC80",[7],0.0373 µg/mL
same,"Neutralization by PGT-125, IC90",[7],0.071 µg/mL
same,"Neutralization by PGT-125, IC95",[7],0.129 µg/mL
1496_C09 (PG9) (TCN-109) (antibody),"IC50, pseudovirus neutralization",[8],0.34 µg/mL
same,"IC50 (µg/mL), pseudovirus neutralization",[9],1.67 µg/mL
same,"IC50, pseudovirus neutralization",[10],1.94 µg/mL
same,"IC50, pseudovirus neutralization",[11],0.75 µg/mL
same,"IC50, pseudovirus neutralization",[12],3.6 µg/mL
same,"IC50, pseudovirus neutralization",[13],0.141 µg/mL
same,"IC50 (µg/mL), pseudovirus neutralization",[14],1.8 µg/mL
same,"IC50, pseudovirus neutralization",[15],0.027 µg/mL
same,"IC50 (µg/mL), pseudovirus neutralization",[16],0.038 µg/mL
same,"IC50 (µg/mL), pseudovirus neutralization",[17],0.004 µg/mL
same,"IC50 (µg/mL), pseudovirus neutralization",[18],0.2 µg/mL
same,"IC50, pseudovirus neutralization",[19],0.006 µg/mL
same,"IC50 (µg/mL), pseudovirus neutralization",[20],6.4 µg/mL
same,"IC50 (µg/mL), pseudovirus neutralization",[21],0.06 µg/mL
same,"IC50 (µg/mL), pseudovirus neutralization",[22],34.8 µg/mL
same,"IC50 (µg/mL), pseudovirus neutralization",[23],0.098 µg/mL
same,"IC50 (µg/mL), pseudovirus neutralization",[24],0.023 µg/mL
same,"IC50 (µg/mL), pseudovirus neutralization",[25],0.021 µg/mL
same,"IC50, pseudovirus neutralization",[26],0.164 µg/mL
same,"IC50, pseudovirus neutralization",[27],0.023 µg/mL
same,"IC50 (µg/mL), pseudovirus neutralization",[28],3.44 µg/mL
same,"IC50 (µg/mL), pseudovirus neutralization",[29],0.688 µg/mL
same,"IC50 (µg/mL), pseudovirus neutralization",[30],0.175 µg/mL
same,"IC50 (µg/mL), pseudovirus neutralization",[31],5.36 µg/mL
same,"IC50 (µg/mL), pseudovirus neutralization",[32],0.533 µg/mL
same,"IC50, pseudovirus neutralization",[33],0.69 µg/mL
same,"IC50 (µg/mL), pseudovirus neutralization",[34],11.5 µg/mL
same,"IC50 (µg/mL), pseudovirus neutralization",[35],1.25 µg/mL
same,"IC50 (µg/mL), pseudovirus neutralization",[36],23.7 µg/mL
same,"IC50 (µg/mL), pseudovirus neutralization",[37],8.78 µg/mL
same,"IC50 (ug/ml), pseudovirus neutralization, TZM-bl assay",[38],0.2 µg/mL
